Measured values as given in patent US20200339702A1 (ULTRAHUMAN THIRTEEN, published 2020).

Key:
[1] = target: T1, rhesus ERBB3 on transiently transfected HEK-293 cells (rhesus monkey (Macaca mulatta), UniProt P21860 20-1342 (human entry)); assay: flow cytometry, rhesus ERBB3-transfected HEK-293
T1 construct: also called rhesus ERBB3+ HEK-293 cells
T1 chain: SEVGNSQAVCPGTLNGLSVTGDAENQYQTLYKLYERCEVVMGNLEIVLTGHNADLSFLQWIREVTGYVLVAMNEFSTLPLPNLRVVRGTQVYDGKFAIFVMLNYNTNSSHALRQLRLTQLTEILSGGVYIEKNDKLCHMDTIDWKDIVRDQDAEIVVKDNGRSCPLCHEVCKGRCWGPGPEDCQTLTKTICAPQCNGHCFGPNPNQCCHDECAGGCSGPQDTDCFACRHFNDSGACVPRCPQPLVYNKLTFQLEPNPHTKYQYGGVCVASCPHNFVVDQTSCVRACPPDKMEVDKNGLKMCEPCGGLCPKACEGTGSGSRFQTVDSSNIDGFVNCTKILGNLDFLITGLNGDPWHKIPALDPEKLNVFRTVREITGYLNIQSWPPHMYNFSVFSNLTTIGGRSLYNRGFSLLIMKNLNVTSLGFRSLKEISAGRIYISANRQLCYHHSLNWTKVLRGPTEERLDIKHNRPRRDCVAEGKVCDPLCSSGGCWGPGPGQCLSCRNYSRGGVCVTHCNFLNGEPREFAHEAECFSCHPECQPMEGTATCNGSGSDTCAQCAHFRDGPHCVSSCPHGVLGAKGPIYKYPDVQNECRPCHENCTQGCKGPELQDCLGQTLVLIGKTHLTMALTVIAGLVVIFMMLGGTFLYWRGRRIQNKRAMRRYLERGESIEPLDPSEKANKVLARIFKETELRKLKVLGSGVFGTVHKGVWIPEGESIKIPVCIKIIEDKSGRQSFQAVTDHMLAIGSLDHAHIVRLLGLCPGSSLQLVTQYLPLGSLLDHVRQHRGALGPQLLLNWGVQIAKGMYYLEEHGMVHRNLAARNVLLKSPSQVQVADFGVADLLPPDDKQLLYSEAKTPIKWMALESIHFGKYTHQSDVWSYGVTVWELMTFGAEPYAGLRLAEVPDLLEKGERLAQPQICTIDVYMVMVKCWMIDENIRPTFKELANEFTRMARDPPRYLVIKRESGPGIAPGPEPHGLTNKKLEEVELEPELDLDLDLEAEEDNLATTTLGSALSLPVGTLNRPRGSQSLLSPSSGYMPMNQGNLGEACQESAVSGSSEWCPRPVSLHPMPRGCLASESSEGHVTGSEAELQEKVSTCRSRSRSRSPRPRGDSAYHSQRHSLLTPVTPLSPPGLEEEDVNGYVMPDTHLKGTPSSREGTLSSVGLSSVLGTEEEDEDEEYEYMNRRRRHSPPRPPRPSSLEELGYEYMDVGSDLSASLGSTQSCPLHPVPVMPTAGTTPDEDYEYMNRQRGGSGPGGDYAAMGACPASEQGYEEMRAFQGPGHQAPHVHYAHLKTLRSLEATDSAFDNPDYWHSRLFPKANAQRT
Summary of the method: (§1)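 Purified IgGs in IgG1null format were titrated threefold from 500 nM to 0.008 nM on HEK-293 cells transiently transfected with full-length human or rhesus ERBB3, with wild-type HEK-293 as comparison. Binding was detected with FITC anti-human IgG and read as mean fluorescence intensity of 10000 cells by flow cytometry.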

[2] = target: T2, human ERBB3 on transiently transfected HEK-293 cells (human, UniProt P21860 20-1342); assay: flow cytometry, human ERBB3-transfected HEK-293
T2 construct: also called human ERBB3+ HEK-293 cells
Summary of the method: as §1

[3] = target: T1, rhesus ERBB3 on transiently transfected …; assay: flow cytometry, rhesus ERBB3-transfected HEK-293 cells, IgG1null titrated
Experimental: Purified IgGs were tested in FACs for binding to human and rhesus monkey ERBB3 expressed on transiently transfected HEK-293 cells and HEK-293 wild-type cells. The IgG samples were titrated in three-fold serial dilutions starting at 500 nM to 0.008 nM. Binding of IgGs was detected with a mouse anti-human IgG conjugated to FITC. Results were analyzed by examining the Mean Fluorescence Intensity (MFI) of 10000 cells per sample in the BL-1 channel detector of a flow cytometer (Attune™ NxT Acoustic Focusing Cytometer, Invitrogen/ThermoFisher Scientific).
Antibodies to ERBB3 were analysed for concentration-dependent binding at the cell surface via flow cytometry. HEK-293 cells were transiently transfected with either human or rhesus ERBB3 full-length cDNAs. Anti-ERBB3 IgGs and an isotype control were then all tested in IgG1null format, over a concentration range of 500-0.008 nM for binding to human (FIG. 5A) and rhesus (FIG. 5B) transfected cells.

[4] = target: T3, rhesus monkey ERBB3 human Fc tagged recombinant protein (rhesus monkey (Macaca mulatta), UniProt P21860 20-643 (human entry), limits assumed); assay: direct binding ELISA on coated rhesus ERBB3-Fc, IgG1null titrated
T3 construct: also called rhesus ERBB3-Fc; rhERBB3
T3 chain: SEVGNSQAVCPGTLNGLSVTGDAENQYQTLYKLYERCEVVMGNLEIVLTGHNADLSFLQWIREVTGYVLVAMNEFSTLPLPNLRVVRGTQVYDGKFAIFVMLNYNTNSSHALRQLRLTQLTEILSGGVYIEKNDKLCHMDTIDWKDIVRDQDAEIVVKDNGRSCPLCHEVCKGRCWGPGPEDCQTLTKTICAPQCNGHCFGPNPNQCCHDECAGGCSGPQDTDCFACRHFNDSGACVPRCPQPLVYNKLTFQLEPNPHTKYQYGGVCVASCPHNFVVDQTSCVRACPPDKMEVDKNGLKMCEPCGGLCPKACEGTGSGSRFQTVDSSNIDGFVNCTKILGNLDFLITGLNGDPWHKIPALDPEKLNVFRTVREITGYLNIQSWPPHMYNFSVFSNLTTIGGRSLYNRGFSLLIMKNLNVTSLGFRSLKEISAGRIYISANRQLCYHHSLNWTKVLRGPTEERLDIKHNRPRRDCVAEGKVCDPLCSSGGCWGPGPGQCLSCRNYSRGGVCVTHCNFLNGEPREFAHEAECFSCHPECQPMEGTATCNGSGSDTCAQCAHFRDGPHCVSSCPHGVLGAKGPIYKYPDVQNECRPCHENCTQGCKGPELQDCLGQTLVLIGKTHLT
Experimental: Binding and cross-reactivity of the lead panel to the recombinant proteins was initially assessed by binding ELISA. The human ERBB3 human Fc tagged recombinant protein and the rhesus monkey ERBB3 human Fc tagged recombinant protein were coated to the surface of MaxiSorp™ flat-bottom 96 well plate at 1 μg/ml. The purified IgG samples were titrated in two fold serial dilutions starting from 500 nM to 0.008 nM and allowed to bind to the coated antigens. The Fabs were detected using mouse anti-c-myc antibody followed by donkey anti-mouse IgG conjugated to horseradish peroxidase. The IgGs were detected using the mouse anti-human IgG conjugated to horseradish peroxidase. Binding signals were visualized with 3,3′,5,5′-Tetramethylbenzidine Substrate Solution (TMB) and the absorbance measured at 450 nm.

Binder	maximum MFI, fold over isotype control background [1] [fold]	maximum MFI, fold over isotype control background [2] [fold]	EC50 (read off the curve) [3] [nM]	EC50 (read off the curve) [4] [nM]
09D12 IgG1null (antibody, V domains shown, Human IgG1null and human Ckappa) VH: QVQLVESGGGLVKPGGSLRLSCAASGFTFSDYGMSWIRQAPGKGLEWVSTISDGGSYTYYADSVKGRFTISRDNAKNSLYLQMNSLRAEDTAVYYCAREYGDYDGFDYWGQGTLVTVSS VL: DIQMTQSPSSLSASVGDRVTITCRASQSISSYLNWYQQKPGKAPKLLIYAASSLDSGVPSRFSGSGSGTDFTLTISSLQPEDFATYYCLQYDSTPLTFGGGTKVEIK	> 20	> 20	~0.4	~0.1
TTP IgG1null (antibody, V domains shown, Designer clone; Human IgG1null and human Ckappa; also called Total Theoretically Possible clone) VH: QVQLVESGGGLVKPGGSLRLSCAASGFTFSDYGMSWIRQAPGKGLEWVSTISDSGSTIYYADSVKGRFTISRDNAKNSLYLQMNSLRAEDTAVYYCAREYGDYDGFDYWGQGTLVTVSS VL: DIQMTQSPSSLSASVGDRVTITCRASQSISSYLNWYQQKPGKAPKLLIYAASSLQSGVPSRFSGSGSGTDFTLTISSLQPEDFATYYCLQYDSTPLTFGGGTKVEIK	> 20	> 20	~0.9	~0.2
